# What was measured:
# Fyn = Fyn (UniProt P06241); assay: phosphorylation enrichment, bacterial display (enrichment ratio); higher = better substrate or ligand; peptides without Tyr show the background
# MERTK = MERTK (UniProt Q12866); assay: as above
# Hck = Hck (UniProt P08631); assay: as above
# EPHB2 = EPHB2 (UniProt P29323); assay: as above
# AncSZ = assay: as above
# Fer (mouse) = assay: as above
# Jak2 = Jak2 (UniProt O60674); assay: as above
# EPHB1 = EPHB1 (UniProt P54762); assay: as above
# EPHB1, sequence (P54762 whole entry, looked up): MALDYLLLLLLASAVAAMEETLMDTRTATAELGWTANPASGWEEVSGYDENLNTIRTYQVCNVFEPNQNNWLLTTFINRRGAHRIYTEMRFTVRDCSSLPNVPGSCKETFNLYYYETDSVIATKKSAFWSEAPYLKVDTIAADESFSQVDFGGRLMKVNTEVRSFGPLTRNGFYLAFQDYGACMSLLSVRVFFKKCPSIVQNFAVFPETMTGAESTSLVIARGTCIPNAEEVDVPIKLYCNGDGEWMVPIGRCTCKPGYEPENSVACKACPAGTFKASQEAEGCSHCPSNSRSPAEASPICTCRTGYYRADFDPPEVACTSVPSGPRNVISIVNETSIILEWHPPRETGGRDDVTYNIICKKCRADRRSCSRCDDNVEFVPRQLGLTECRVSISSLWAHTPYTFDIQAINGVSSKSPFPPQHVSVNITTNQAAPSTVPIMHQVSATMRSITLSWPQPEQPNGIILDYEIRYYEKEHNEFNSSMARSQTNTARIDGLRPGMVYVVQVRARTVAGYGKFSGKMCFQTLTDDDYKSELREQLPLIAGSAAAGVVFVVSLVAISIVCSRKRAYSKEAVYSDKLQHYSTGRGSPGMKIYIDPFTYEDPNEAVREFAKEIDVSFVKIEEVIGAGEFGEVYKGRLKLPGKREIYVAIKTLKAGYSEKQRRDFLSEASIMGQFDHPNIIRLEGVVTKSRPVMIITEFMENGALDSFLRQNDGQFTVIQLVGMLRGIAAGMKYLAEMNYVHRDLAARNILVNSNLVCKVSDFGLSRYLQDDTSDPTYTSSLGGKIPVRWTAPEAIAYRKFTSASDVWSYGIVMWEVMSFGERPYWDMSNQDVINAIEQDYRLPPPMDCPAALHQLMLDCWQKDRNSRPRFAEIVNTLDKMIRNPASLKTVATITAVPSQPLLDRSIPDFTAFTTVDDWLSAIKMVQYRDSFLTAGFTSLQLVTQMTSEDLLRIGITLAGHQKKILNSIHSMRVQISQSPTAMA
# FGFR3 = FGFR3 (UniProt P22607); assay: as above
# FGFR3, sequence (P22607 whole entry, looked up): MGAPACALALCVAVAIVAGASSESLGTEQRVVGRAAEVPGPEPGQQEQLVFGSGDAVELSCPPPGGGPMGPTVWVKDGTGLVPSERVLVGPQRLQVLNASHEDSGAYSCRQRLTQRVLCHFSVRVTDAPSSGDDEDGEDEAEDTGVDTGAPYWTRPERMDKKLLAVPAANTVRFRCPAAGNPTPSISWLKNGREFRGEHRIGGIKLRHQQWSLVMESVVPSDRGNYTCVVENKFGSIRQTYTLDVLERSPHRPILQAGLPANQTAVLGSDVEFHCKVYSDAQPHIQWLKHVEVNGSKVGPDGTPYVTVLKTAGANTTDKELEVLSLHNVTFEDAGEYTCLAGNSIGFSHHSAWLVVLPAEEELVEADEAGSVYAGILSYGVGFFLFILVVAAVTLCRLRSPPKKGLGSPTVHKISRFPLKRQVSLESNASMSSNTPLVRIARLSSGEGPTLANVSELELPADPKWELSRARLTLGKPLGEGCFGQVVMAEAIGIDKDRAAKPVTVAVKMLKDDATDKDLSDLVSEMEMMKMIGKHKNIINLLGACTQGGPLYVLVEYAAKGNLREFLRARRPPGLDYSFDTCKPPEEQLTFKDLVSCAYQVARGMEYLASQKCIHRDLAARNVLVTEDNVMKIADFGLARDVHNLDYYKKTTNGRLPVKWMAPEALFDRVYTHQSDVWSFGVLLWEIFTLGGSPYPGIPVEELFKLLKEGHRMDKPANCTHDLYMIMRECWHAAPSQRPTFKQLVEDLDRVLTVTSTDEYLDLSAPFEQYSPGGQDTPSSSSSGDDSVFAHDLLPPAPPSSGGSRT
# Fes = Fes (UniProt P07332); assay: as above
# FGFR1 = FGFR1 (UniProt P11362); assay: as above
# FGFR1, sequence (P11362 whole entry, looked up): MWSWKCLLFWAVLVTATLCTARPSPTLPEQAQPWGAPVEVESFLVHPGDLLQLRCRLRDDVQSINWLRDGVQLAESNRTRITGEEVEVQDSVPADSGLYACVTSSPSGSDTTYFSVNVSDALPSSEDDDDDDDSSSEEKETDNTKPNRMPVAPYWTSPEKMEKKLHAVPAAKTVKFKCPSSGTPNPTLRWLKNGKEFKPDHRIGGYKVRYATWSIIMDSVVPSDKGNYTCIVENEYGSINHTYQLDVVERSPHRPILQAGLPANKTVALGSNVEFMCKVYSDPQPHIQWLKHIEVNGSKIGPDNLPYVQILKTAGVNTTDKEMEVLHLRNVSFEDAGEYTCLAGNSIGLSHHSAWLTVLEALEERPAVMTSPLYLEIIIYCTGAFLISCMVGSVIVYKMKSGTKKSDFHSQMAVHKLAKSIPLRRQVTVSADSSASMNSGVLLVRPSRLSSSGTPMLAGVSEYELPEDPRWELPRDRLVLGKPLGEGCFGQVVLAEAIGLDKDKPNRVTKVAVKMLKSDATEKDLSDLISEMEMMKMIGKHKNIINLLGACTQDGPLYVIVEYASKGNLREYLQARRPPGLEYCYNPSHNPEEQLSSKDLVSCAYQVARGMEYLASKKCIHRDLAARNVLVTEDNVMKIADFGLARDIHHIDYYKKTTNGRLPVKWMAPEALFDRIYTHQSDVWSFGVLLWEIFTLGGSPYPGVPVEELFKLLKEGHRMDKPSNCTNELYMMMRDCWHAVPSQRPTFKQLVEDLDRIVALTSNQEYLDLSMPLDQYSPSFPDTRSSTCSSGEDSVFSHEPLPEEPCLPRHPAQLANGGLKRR
# c-Abl (mouse) = assay: as above
# c-Src = assay: as above
# Grb2 SH2 = Grb2 SH2 (UniProt P62993); assay: SH2 binding enrichment of the phosphorylated peptide, bacterial display (enrichment ratio); higher = better substrate or ligand; peptides without Tyr show the background
# Grb2 SH2, sequence (P62993 whole entry, looked up): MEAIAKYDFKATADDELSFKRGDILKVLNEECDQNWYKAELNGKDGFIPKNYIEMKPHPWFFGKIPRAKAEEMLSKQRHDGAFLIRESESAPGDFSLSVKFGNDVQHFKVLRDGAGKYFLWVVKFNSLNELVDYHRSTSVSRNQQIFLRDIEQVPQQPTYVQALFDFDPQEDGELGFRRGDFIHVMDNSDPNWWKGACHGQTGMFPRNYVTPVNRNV
# SHP2-C SH2 = assay: as above
# c-Src SH2 = assay: as above
# 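For SH2 binding enrichment of the phosphorylated peptide, bacterial display in this document: peptide library displayed on the E. coli surface as eCPX fusions, selected cells deep-sequenced, score is each peptide's frequency after selection divided by its frequency in the input.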
# 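For phosphorylation enrichment, bacterial display in this document: 11-residue human phosphosite peptides and single-mutation variants displayed on the E. coli surface, counted by deep sequencing, each peptide's frequency after selection divided by its frequency in the unselected input library; frequency after pTyr selection over input frequency; kinase dosed for 20-30% of maximal phosphorylation in three min.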
# EPHB2, sequence (P29323 whole entry, looked up): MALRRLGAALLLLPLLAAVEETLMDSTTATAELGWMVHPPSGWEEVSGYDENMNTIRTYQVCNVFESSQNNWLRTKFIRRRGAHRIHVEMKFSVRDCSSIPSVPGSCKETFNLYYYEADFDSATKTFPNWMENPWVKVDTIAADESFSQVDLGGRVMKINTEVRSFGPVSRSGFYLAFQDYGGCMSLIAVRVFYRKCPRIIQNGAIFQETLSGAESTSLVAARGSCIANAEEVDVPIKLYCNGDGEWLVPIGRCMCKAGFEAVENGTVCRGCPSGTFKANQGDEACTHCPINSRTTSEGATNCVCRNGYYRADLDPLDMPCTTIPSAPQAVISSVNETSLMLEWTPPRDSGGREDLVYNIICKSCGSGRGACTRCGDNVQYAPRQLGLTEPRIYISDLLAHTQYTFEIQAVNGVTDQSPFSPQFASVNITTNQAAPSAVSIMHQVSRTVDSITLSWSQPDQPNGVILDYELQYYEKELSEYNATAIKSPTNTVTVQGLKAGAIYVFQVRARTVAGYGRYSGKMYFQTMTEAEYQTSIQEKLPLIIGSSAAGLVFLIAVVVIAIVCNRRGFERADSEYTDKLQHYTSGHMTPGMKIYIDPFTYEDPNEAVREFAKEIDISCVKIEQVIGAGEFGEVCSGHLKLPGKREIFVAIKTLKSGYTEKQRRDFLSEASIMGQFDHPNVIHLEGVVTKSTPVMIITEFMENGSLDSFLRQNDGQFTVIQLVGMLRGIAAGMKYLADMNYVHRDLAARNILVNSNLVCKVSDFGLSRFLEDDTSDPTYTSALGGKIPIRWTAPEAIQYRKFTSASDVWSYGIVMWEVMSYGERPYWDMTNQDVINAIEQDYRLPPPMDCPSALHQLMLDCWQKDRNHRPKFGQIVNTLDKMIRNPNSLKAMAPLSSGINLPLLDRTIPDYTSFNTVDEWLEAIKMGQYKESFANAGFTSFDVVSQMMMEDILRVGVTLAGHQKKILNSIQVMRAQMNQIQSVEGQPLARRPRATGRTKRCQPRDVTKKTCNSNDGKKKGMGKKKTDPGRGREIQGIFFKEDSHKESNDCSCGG
# Jak2, sequence (O60674 whole entry, looked up): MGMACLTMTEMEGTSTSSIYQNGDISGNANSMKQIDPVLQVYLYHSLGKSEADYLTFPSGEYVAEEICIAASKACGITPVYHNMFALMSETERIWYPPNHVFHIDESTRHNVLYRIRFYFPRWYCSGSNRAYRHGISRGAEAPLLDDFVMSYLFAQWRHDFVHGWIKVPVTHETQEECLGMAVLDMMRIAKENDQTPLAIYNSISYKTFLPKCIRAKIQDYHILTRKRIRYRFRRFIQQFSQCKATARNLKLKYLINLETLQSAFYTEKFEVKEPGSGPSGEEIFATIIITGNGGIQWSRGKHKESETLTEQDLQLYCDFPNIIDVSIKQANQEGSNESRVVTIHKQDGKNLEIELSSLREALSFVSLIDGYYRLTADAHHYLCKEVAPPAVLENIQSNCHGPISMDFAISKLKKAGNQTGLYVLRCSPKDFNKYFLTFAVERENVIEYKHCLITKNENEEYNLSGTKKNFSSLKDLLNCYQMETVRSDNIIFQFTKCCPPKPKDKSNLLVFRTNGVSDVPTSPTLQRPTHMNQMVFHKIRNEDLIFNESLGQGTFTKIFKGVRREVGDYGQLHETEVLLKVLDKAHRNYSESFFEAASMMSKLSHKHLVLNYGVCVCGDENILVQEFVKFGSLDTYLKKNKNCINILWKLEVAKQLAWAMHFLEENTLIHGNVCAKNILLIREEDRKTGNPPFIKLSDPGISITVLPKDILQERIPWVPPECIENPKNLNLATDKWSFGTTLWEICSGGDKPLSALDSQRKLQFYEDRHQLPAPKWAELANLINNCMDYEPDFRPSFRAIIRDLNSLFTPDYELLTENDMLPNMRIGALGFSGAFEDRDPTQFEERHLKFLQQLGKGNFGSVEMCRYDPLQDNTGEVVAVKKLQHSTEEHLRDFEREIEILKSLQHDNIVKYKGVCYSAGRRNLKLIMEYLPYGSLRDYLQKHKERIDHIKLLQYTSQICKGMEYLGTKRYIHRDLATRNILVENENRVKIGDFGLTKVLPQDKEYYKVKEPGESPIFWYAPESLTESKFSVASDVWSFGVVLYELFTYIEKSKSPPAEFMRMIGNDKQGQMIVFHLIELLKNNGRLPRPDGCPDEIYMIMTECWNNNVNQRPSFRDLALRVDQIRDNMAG
Sequence,phosphorylation enrichment (Fyn),phosphorylation enrichment (MERTK),phosphorylation enrichment (Hck),phosphorylation enrichment (EPHB2),phosphorylation enrichment (AncSZ),phosphorylation enrichment (Fer (mouse)),phosphorylation enrichment (Jak2),phosphorylation enrichment (EPHB1),phosphorylation enrichment (FGFR3),phosphorylation enrichment (Fes),phosphorylation enrichment (FGFR1),phosphorylation enrichment (c-Abl (mouse)),phosphorylation enrichment (c-Src),SH2 binding enrichment (Grb2 SH2),SH2 binding enrichment (SHP2-C SH2),SH2 binding enrichment (c-Src SH2)
TSSAGYRAAEG [COL6A3_Y543],0.422,0.365,0.379,0.406,0.524,0.429,0.365,0.505,0.641,0.629,0.573,0.309,0.316,0.903,0.653,0.485
TDLAYYLVRKG [ASL_Y376],0.539,0.684,0.716,0.629,0.963,0.48,2.05,0.468,2.42,0.962,3.17,0.672,0.783,0.95,1.41,0.795
CVAARYMDMKG [WFIKKN2_Y93_V96M],0.439,0.446,0.471,0.428,0.755,0.431,0.654,0.394,0.637,0.984,0.36,0.542,0.39,0.95,0.765,1.39
KHMADYPDCKY [SOX11_Y113_Y116C],0.251,0.375,0.55,0.783,0.65,0.504,1.07,0.483,1.31,1.01,0.635,1.36,0.368,0.863,1.59,1.92
RGFRVCFTPDS [PTPRF_Y450_Y450C_YF],0.521,0.551,1.65,0.462,1.09,0.635,1.97,0.64,0.812,1.73,0.337,1.32,0.549,0.796,0.615,0.338
AHPIIYEIIEA [PYKtide_E_2014],9.6,11.6,9.98,20.4,1.93,16.2,1.16,22.3,1.59,5.96,2.02,2.94,8.32,1.18,1.07,0.872
SFPSTYRYERG [INPPL1_Y661_P659S],0.439,0.455,0.392,0.397,0.484,0.418,0.767,0.453,0.449,0.813,0.39,0.52,0.463,0.987,0.728,0.633
PESIMYRKFTT [NTRK3_Y744],0.67,0.616,0.517,0.552,3.03,0.485,0.666,0.534,0.667,0.789,0.384,0.777,0.488,1.05,0.494,0.6
CTTIHQNFMCN [TP53_Y234_Y234Q_YF],0.435,0.377,0.397,0.497,0.9,0.421,0.575,0.421,0.614,0.855,0.459,0.497,0.391,1.2,1.02,1.12
YQKDVYNIPPS [NEDD9_Y177_D178N],4.4,1.64,2.34,0.532,0.81,0.472,0.805,0.456,0.529,0.702,0.623,0.584,3.29,0.808,0.6,0.495
KKILCYIQGGS [HYDIN_Y4610_N4606K],0.499,0.549,0.521,0.609,1.31,0.58,1.17,0.611,0.758,1.46,0.439,1.07,0.411,0.802,0.495,0.459
NPQKSYFICLF [WAS_Y83_R86C_YF],0.39,0.43,0.448,0.523,1.1,0.496,1.13,0.525,0.757,1.27,0.632,1,0.504,0.988,1.03,0.602
LRVHSYKSMQP [DRC7_Y516],0.567,0.423,0.684,0.515,0.797,0.565,0.476,0.526,0.671,0.769,0.479,0.785,0.55,1.25,0.957,0.607
VITDFYVDMKF [MPP4_Y567_YF],0.457,0.52,0.624,0.824,1.23,0.925,1.27,1.31,1.36,1.32,1.42,0.727,0.503,0.864,0.577,0.607
RSACTYLASHL [PLK3_Y615],0.468,0.433,0.4,0.641,0.703,0.519,0.575,0.534,0.792,0.909,0.509,0.564,0.417,1.04,0.498,0.641
DRLASSLDKVR [KRT10_Y160_Y160S],0.423,0.331,0.308,0.364,0.438,0.412,0.473,0.34,0.415,0.663,0.35,0.468,0.333,0.974,0.846,0.422
FSCLPCGRLAF [SLC52A2_Y305_Y305C_YF],0.354,0.532,0.389,0.404,0.752,0.423,0.67,0.442,0.542,0.868,0.657,0.55,0.33,1.36,1.38,1.62
EREYKYGAHNH [OAT_Y50_Y55H],0.406,0.496,0.44,0.509,0.525,0.364,0.591,0.391,0.463,0.603,0.485,0.483,0.415,0.981,0.743,0.708
QRPYVYYYSYL [PTEN_Y176_R173P],3.38,8.05,3.7,4.08,2.26,2,6.45,4.84,7.23,2.35,9.79,1.59,5.34,1.17,1.14,0.734
GPTLSYGRDGR [MATR3_Y158],0.33,0.488,0.379,0.347,0.435,0.306,0.449,0.276,0.377,0.526,0.363,0.369,0.332,0.692,0.739,0.532
VDESLYKTHPQ [HK1_Y417_G414E],0.592,0.553,0.656,0.706,0.904,0.572,0.811,0.513,0.699,0.989,0.644,0.9,0.541,0.76,0.624,0.458
TGFRPYVCPFD [YY1_Y383_D380Y_YF],0.4,0.849,0.691,0.978,1.54,0.892,1.12,2.1,1.66,0.975,1.1,1.29,0.458,0.677,0.82,0.56
SGSFRYGSSCE [SELE_Y390],0.45,0.388,0.47,0.456,0.642,0.353,0.644,0.412,0.554,0.801,0.393,0.486,0.466,0.748,0.747,0.528
LERYIYNREEY [HLA-DPB1_Y59_F64Y],1.77,0.719,1.72,0.982,1.08,0.519,0.998,0.568,0.903,1.25,0.726,0.752,3.15,1.08,0.642,1.8
TGEDWYVLVRV [SF3B3_Y904_G908R],0.433,0.364,0.561,0.64,1.37,0.524,1.21,0.893,0.827,1.42,0.405,0.954,0.385,0.626,0.491,0.377
GDFLSYREFHS [ERBIN_Y1107_YF],0.348,0.359,0.385,0.469,0.625,0.489,0.557,0.386,0.567,0.686,0.432,0.534,0.423,0.741,0.639,0.49
ERFAFYRDSPR [FOXE3_Y108],0.49,0.489,0.523,0.51,0.889,0.404,0.835,0.456,0.566,0.785,0.474,0.625,0.587,0.774,0.751,0.522
TENAGYYFQVS,0.456,1.29,0.563,0.713,1.39,0.604,1.99,0.78,1.76,1.52,2,0.983,0.509,0.783,1.04,0.962
QNRELYSEGLG [CNKSR1_Y665],0.434,0.443,0.895,0.454,0.516,0.309,0.497,0.536,0.397,0.789,0.578,1.33,0.446,0.74,0.616,0.536

# From the supplement of paper PMC10065799, “High-throughput profiling of sequence recognition by tyrosine kinases and SH2 domains using bacterial peptide display” (eLife, 2023)
